Measurements taken from US20220288204A1, “DOSAGE AND ADMINISTRATION OF ANTI-ERBB3 (HER3) MONOCLONAL ANTIBODIES TO TREAT TUMORS ASSOCIATED WITH NEUREGULIN 1 (NRG1) GENE FUSIONS” (ELEVATION ONCOLOGY, INC., priority 2021, published 2022).

Tests used:
OV-10-0050 PDX tumors = test: HGSOC ovarian PDX model efficacy (CLU-NRG1); format: in vivo, mice; set-up: average tumor volume at the time of the last treatment: unit not given beside the values; details: afatinib 5 mg/kg once daily, day 27
From the text: IHC characterization of the OV-10-0050 PDX model (FIG. 6A). H&E staining, WT1, and TP53 IHC (left to right). […] (FIG. 6B). Treatment was terminated on day 27 and animals were monitored for tumor regrowth until tumors reached maximum allowable size or until 90 days after treatment initiation. Results represent the mean tumor volume ±SEM. A zoom-in view on tumor volumes during the last 40 days of monitoring of seribantumab-treated groups (right). […] Change in the volume of individual tumors (day 27 vs. volume at start of treatment) (FIG. 6C).
Crushed PDX tumor samples were mixed with Matrigel (50%) and injected into the subcutaneous flank of 6-week-old female NSG (LUAD-0061AS3) or Balb/c nude (OV-10-0050) mice. When tumors reached approximately 100-150 mm3, mice were randomly assigned to groups of 5-8 and treatment was commenced. There were 2 mice per group with bilateral flank tumors for the protein phosphorylation/expression study in the LUAD-0061AS3 PDX model. Drugs were administered once, and then tumors were collected at 2, 24, and 168 hours posttreatment. Afatinib was administered by oral gavage once daily as a suspension (in 0.5% methylcellulose-0.4% Tween-80) on a 5-days-on and 2-days-off schedule. […] Mice were observed daily throughout the treatment period for signs of morbidity and mortality. Tumor length and width and animal weights were measured twice weekly. Tumor volume was calculated using the empirical formula V=length×width 2×0.52. The percentage change in tumor volume of each tumor was calculated using the formula [(V2−V1)/V1)]×100, where V1 is the starting tumor volume and V2 is the final tumor volume.
RT-PCR confirmed the presence of the CLU-NRG1 fusion. Xenograft tissue morphology and IHC markers (positive for WT1 and strong nuclear staining for TP53) were consistent with HGSOC histology (FIG. 6A; Kobel M, et al., Int. J. Gynecol. Pathol. 2016; 35:430-41). […] As with the above experiments in the NSCLC PDX model, the doses of seribantumab used here were lower than the dose that is used in patients. Treatment was terminated at day 27 and tumor growth was monitored for an additional 63 days (90 days after initiation of treatment or once tumors reached the maximum allowable size). The tumor volume as a function of time is illustrated in FIG. 6B, and the AUC was computed for each group to compare tumor volumes between groups at the last date of treatment. […] Forty-one days after treatment began, mice bearing vehicle- and afatinib-treated tumors were sacrificed because of the high tumor burden.

MDA-MB-175-VII cells = test: Caspase 3/7 enzymatic activity in cell homogenates (apoptosis); format: cell-based, human
Procedure: (§1) MCF-7 cells were treated with the indicated concentrations of NRG1-b1 for 10 minutes, and then cell extracts were prepared and subjected to Western blotting for the indicated phosphorylated (p) or total (t) proteins (FIG. 2A). […] Data were analyzed by nonlinear regression using GraphPad Prism 8. There were four replicates of each condition and data represent the mean±SD. […] Cells were counted on the days indicated on the graph. Results represent the mean±SD of duplicates of each condition in one representative experiment. MDA-MB-175-VII (FIG. 2D) and LUAD-0061AS3 (FIG. 2E) cells were treated with the indicated concentrations of inhibitors for 48 hours, and then caspase 3/7 enzymatic activity was measured in cell homogenates. Carfilzomib (20S proteasome inhibitor) was used as a positive control for apoptosis. Results are the mean±SEM of three independent experiments in which each condition was assayed in three replicate determinations. The absence of an error bar for any data point indicates an error value too small to be represented on the scale used.
(§2) As a positive control for activation of caspase 3/7, 1 μmol/L carfilzomib was used.

LUAD-0061AS3 cells = test: as above; format: cell-based, human
Procedure: as §1, §2

human ERBB3 (HER3) = human ERBB3 (HER3) (human, UniProt P21860 20-1342); test: cell-based or functional assay
Sequence of human ERBB3 (HER3) (P21860 other isoform, or with tags, fused parts or gaps): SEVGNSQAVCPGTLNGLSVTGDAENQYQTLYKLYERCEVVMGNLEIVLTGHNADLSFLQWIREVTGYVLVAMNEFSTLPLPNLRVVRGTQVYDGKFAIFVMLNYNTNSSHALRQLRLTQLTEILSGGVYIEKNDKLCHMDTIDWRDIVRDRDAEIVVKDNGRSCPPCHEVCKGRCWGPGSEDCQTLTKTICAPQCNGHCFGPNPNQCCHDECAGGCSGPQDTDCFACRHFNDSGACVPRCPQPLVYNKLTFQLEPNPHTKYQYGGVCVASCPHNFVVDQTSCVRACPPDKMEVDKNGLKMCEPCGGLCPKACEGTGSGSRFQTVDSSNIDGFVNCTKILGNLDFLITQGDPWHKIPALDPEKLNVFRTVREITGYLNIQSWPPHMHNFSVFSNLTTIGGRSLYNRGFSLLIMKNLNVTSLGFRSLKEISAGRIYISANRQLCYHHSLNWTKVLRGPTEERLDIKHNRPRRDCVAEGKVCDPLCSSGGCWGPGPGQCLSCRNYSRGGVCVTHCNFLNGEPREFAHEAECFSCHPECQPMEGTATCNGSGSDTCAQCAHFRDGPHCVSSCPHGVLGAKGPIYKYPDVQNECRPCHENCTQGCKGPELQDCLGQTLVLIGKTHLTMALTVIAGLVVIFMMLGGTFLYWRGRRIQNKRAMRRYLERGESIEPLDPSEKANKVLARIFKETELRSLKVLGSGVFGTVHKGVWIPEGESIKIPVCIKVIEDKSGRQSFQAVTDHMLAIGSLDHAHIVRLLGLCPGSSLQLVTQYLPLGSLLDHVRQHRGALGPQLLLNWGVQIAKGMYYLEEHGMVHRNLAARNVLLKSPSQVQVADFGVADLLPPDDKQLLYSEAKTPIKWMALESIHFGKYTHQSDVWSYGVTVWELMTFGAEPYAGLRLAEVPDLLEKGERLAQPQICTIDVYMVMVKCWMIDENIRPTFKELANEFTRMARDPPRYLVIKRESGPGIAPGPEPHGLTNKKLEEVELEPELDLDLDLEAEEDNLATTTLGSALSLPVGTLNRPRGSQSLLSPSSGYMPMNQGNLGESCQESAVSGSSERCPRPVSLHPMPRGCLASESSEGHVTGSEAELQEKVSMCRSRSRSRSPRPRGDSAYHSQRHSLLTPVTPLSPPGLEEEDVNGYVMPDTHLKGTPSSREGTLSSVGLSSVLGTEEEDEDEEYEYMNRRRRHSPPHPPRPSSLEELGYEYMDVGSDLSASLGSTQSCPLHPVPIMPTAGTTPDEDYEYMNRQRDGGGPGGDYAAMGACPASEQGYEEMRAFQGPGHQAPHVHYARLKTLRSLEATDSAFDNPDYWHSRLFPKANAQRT

[1] = 1 μmol/L carfilzomib, positive control

## CN(C)C/C=C/C(=O)Nc1cc2c(Nc3ccc(F)c(Cl)c3)ncnc2cc1O[C@H]1CCOC1 [afatinib]
OV-10-0050 PDX tumors
  average tumor volume at the time of the last treatment: 786.4±190.5
MDA-MB-175-VII cells; 10 μmol/L, 48 hours
  caspase 3/7 activity: 14.1±3.6 fold above control
LUAD-0061AS3 cells; highest concentration used, 48 hours
  caspase 3/7 activity: 3.3±0.1 fold above control

## CC(C)C[C@H](NC(=O)[C@H](CCc1ccccc1)NC(=O)CN1CCOCC1)C(=O)N[C@@H](Cc1ccccc1)C(=O)N[C@@H](CC(C)C)C(=O)[C@@]1(C)CO1 [carfilzomib]
MDA-MB-175-VII cells; [1]
  caspase 3/7 activity: 16.6±1.9 fold above control
LUAD-0061AS3 cells; [1]
  caspase 3/7 activity: 5.8±1.3 fold above control

B1: seribantumab (antibody, human IgG2, lambda, V domains shown)
VH: EVQLLESGGGLVQPGGSLRLSCAASGFTFSHYVMAWVRQAPGKGLEWVSSISSSGGWTLYADSVKGRFTISRDNSKNTLYLQMNSLRAEDTAVYYCTRGLKMATIFDYWGQGTLVTVSS
VL: QSALTQPASVSGSPGQSITISCTGTSSDVGSYNVVSWYQQHPGKAPKLIIYEVSQRPSGVSNRFSGSKSGNTASLTISGLQTEDEADYYCCSYAGSSIFVIFGGGTKVTVLG
Human ERBB3 (HER3)
  IC50 for growth inhibition, HBECp53 cells (nontumor, no NRG1 fusion, control), 96 h, AlamarBlue viability: 203 µM
  IC50 for growth inhibition, LUAD-0061AS3 cells (SLC3A2-NRG1 fusion), 96 h, AlamarBlue viability: 1.4 µM
  IC50 for growth inhibition, MCF-7 cells (no NRG1 fusion, control), 96 h, AlamarBlue viability: 45.2 µM
  IC50 for growth inhibition, MDA-MB-175-VII cells (DOC4-NRG1 fusion), 96 h, AlamarBlue viability: 0.02 µM
  caspase 3/7 activity, LUAD-0061AS3 cells, highest concentration used, 48 h: 4 fold above control
  caspase 3/7 activity, MDA-MB-175-VII cells, 10 µmol/L, 48 h: 12.7 fold above control
